Data on two molecules can be found in patent US20240270846A1.

This assay concerns the target recombinant human CD3 (human) (UniProt P07766). The experiment in a line: SPR (Biacore T200, 37 degrees C), antibody captured by anti-human Fc, antigen as analyte, 1:1 model. A general note: In SPR one partner is held on a chip, and binding of the other changes the refractive index at the surface.

Usually Kd stands for the equilibrium constant for the complex coming apart. Broadly, the koff is a measure of how fast the partners let go of each other. In general, kon refers to the rate constant with which the complex forms.

recombinant human CD3 (human), sequence (P07766 23-126): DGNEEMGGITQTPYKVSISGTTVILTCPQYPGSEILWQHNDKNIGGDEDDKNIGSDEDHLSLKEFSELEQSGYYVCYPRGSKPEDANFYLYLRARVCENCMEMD

B1: GPC3/CtrlxCD3 trispecific antibody (protein, from a related filing, part only)
VH 1: QVQLVESGGGLVQPGRSLRLSCAASGFTFSNAWMHWVRQAPGKGLEWVAQIKDRANSYNTYYAESVKGRFTISRDDSKNSIYLQMNSLKTEDTAVYYCRYVHYTTYAGSSFSYGVDAWGQGTTVTVSS
VL 1: DIVMTQSPLSLPVTPGEPASISCRSSQPLVHSNRNTYLHWYQQKPGQAPRLLIYKVSNRFSGVPDRFSGSGSGTDFTLKISRVEAEDVGVYYCGQGTQVPYTFGQGTKLEIK
VH 2: QVQLVQSGAEVKKPGASVTVSCKASGYTFTDYEMHWIRQPPGEGLEWIGAIDGPTPDTAYSEKFKGRVTLTADKSTSTAYMELSSLTSEDTAVYYCTRFYSYTYWGQGTLVTVSS
VL 2: B1 VL 1
modifications: left off: another chain or arm of the molecule; a dimerising Fc or GST
On to B1, for which the Kd was 17.8 nM, the koff stood at 0.00151 s⁻¹ and the association rate constant (kon) came out at 85000 M⁻¹ s⁻¹.

B2: Ctrl/CtrlxCD3 trispecific antibody (protein, part only; not given: Control arm variable domains, constant regions, part only)
VH: B1 VH 1
VL: B1 VL 1
Regarding B2, the Kd is 17.5 nM, the koff stood at 0.00147 s⁻¹ and the kon was determined as 83700 M⁻¹ s⁻¹.
